Results published in PMC6282620, “Structural and biochemical characterization of Plasmodium falciparum Hsp70‐x reveals functional versatility of its C‐terminal EEVN motif” (Proteins, 2018).

B1: peptide ANNNMYRR (peptide)
peptide: ANNNMYRR
B2: peptide NRNNTG (peptide)
peptide: NRNNTG
B3: peptide NRLLTG (peptide)
peptide: NRLLTG
B4: peptide ALLLMYRR (peptide)
peptide: ALLLMYRR

Target: PfHsp70‐x C‐terminal truncated version with a missing EEVN motif (Plasmodium falciparum)
Experiment: SPR; PfHsp70‐x or PfHsp70‐xT immobilised on ProteOn GLC chips, peptides as analytes at 1.25-20 nM, 25°C, PBS‐Tween pH 7.4, with 2 mM ADP

Binder | Kd [nM]
B1 | 443000
B2 | 1.69
B3 | 170
B4 | 313000

Target: Plasmodium falciparum Hsp70‐x (full length) (Plasmodium falciparum)
Experiment: as above

Binder | Kd [nM]
B1 | 2.21
B2 | 4.31
B3 | 620
B4 | 2820

Target: Plasmodium falciparum Hsp70-x (full length) (Plasmodium falciparum)
Experiment: SPR; PfHsp70-x or PfHsp70-xT immobilised on ProteOn GLC chips as ligands; peptides as analytes at 1.25-20 nM, 50 uL/min; 25 °C; PBS-Tween; with 2 mM ADP

Binder | koff [s⁻¹] | kon [M⁻¹ s⁻¹]
B1 | 0.00386 | 1.74e+06
B2 | 1.03e-07 | 2.55
B3 | 1.01e-05 | 1.62
B4 | 0.00282 | 

Target: PfHsp70-x C-terminal truncated version with a missing EEVN motif (Plasmodium falciparum)
Experiment: as above

Binder | koff [s⁻¹] | kon [M⁻¹ s⁻¹]
B1 | 1.04e-05 | 
B2 | 1.01e-08 | 5.96
B3 | 1e-05 | 6
B4 | 1.04e-05 | 

Target: PfHsp70‐x C‐terminal truncated version with a missing EEVN motif (Plasmodium falciparum)
Experiment: SPR; PfHsp70‐x or PfHsp70‐xT immobilised on ProteOn GLC chips, peptides as analytes at 1.25-20 nM, 25°C, PBS‐Tween pH 7.4, with 2 mM ATP

Binder | Kd [nM]
B2 | 107
B3 | 1800

Target: Plasmodium falciparum Hsp70‐x (full length) (Plasmodium falciparum)
Experiment: as above

Binder | Kd [nM]
B1 | 783
B2 | 137
B3 | 1700
B4 | 60600

Target: PfHsp70‐x C‐terminal truncated version with a missing EEVN motif (Plasmodium falciparum)
Experiment: SPR; PfHsp70‐x or PfHsp70‐xT immobilised on ProteOn GLC chips, peptides as analytes at 1.25-20 nM, 25°C, PBS‐Tween pH 7.4, no nucleotide

Binder | Kd [nM]
B1 | 626000
B2 | 7.92
B3 | 280
B4 | 542000

Target: Plasmodium falciparum Hsp70‐x (full length) (Plasmodium falciparum)
Experiment: as above

Binder | Kd [nM]
B1 | 2.21
B2 | 6.91
B3 | 250
B4 | 1470

Target: Plasmodium falciparum Hsp70-x (full length) (Plasmodium falciparum)
Experiment: SPR; PfHsp70-x or PfHsp70-xT immobilised on ProteOn GLC chips as ligands; peptides as analytes at 1.25-20 nM, 50 uL/min; 25 °C; PBS-Tween; no nucleotide

Binder | koff [s⁻¹] | kon [M⁻¹ s⁻¹]
B1 | 0.000732 | 331000
B2 | 9.49e-07 | 2.43
B3 | 9.97e-06 | 3.86
B4 | 1.28e-06 | 

Target: PfHsp70-x C-terminal truncated version with a missing EEVN motif (Plasmodium falciparum)
Experiment: as above

Binder | koff [s⁻¹] | kon [M⁻¹ s⁻¹]
B1 | 1.04e-05 | 
B2 | 2.79e-08 | 3.52
B3 | 8.67e-06 | 3.15
B4 | 1.04e-05 | 

Target: Plasmodium falciparum Hsp70-x (full length) (Plasmodium falciparum)
Experiment: SPR; PfHsp70-x or PfHsp70-xT immobilised on ProteOn GLC chips as ligands; peptides as analytes at 1.25-20 nM, 50 uL/min; 25 °C; PBS-Tween; with 2 mM ATP

Binder | koff [s⁻¹] | kon [M⁻¹ s⁻¹]
B1 | 0.00567 | 7240
B2 | 1.01e-06 | 7.33
B3 | 1.01e-05 | 1.21
B4 | 1.6e-06 | 

Target: PfHsp70-x C-terminal truncated version with a missing EEVN motif (Plasmodium falciparum)
Experiment: as above

Binder | koff [s⁻¹] | kon [M⁻¹ s⁻¹]
B2 | 1.01e-05 | 9.37
B3 | 0.000161 | 31.8
